Experimental data taken from article PMC8509414, “A Novel GUCA1A Variant Associated with Cone Dystrophy Alters cGMP Signaling in Photoreceptors by Strongly Interacting with and Hyperactivating Retinal Guanylate Cyclase” (International Journal of Molecular Sciences, 2021).

How the values were obtained:
[1] = target: T1, human recombinant ROS-GC1 (retinal guanylate cyclase 1) (human, UniProt Q02846 52-1103); experiment: cell-based or functional assay
T1 sequence (looked up): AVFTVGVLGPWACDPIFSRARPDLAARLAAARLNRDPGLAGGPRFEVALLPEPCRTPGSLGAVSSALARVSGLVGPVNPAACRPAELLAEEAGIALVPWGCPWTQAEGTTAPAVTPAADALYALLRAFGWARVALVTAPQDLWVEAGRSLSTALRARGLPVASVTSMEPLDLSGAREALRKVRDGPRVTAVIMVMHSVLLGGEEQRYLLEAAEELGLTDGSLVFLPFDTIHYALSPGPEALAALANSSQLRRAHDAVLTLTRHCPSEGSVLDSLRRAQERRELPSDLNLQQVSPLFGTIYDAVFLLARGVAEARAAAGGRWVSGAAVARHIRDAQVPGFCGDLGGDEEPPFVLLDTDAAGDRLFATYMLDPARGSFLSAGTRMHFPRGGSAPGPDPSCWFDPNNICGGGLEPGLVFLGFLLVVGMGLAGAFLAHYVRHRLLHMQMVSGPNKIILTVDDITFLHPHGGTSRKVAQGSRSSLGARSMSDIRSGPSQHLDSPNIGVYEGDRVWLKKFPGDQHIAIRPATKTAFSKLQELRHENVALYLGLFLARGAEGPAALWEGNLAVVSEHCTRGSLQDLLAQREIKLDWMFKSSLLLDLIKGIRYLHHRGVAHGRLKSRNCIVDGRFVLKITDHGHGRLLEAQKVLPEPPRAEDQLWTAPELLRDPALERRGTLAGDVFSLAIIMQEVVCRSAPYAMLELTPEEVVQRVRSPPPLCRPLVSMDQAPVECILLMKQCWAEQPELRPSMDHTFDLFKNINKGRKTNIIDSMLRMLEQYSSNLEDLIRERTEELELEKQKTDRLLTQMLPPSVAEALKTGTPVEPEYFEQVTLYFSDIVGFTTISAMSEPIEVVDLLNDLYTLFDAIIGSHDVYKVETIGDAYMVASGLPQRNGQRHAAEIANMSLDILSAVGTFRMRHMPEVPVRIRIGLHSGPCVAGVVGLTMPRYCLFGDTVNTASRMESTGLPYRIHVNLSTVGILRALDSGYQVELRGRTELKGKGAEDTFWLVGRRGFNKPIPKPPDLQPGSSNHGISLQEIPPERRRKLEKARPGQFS

[2] = target: the molecule itself; experiment: SEC; analytical gel filtration, Superose 12 10/300, 20 mM Tris-HCl pH 7.5, 150 mM KCl, 1 mM DTT, 500 µM EGTA + 1 mM Mg2+ or 1 mM Mg2+ + 1 mM Ca2+, room temperature; protein 20 µM (methods) or ~45 µM; apparent MW from a calibration curve

B1: N104H-GCAP1 (guanylate cyclase-activating protein 1, variant p.Asn104His, in the E6S background) (natural protein, human, UniProt P43080 1-201, looked up)
chain: MGNVMSGKSVEELSSTECHQWYKKFMTECPSGQLTLYEFRQFFGLKNLSPSASQYVEQMFETFDFNKDGYIDFMEYVAALSLVLKGKVEQKLRWYFKLYDVDGHGCIDRDELLTIIQAIRAINPCSDTTMTAEEFTDTVFSKIDVNGDGELSLEEFIEGVQKDQMLLDTLTRSLDLTRIVRRLQNGEQDEEGADEAAEAAG
modifications: N-terminal myristoylation (by co-expressed S. cerevisiae N-myristoyl transferase, yNMT)
notes: cDNA of GCAP1-E6S in pET-11a (NdeI/NheI); c.310A>C p.(Asn104His) introduced by site-directed mutagenesis; N104H is a patient variant; E6S was put in by the authors to give the consensus for myristoylation by yNMT; No tag is mentioned; Myristoylation on Gly2 implies loss of the initiator Met (surmise); also called N104H-GCAP1 variant; p.N104H; source: E. coli BL21 co-transformed with pBB131-yNMT
With B1 the “GC activity (cGMP synthesis, HPLC) of HEK293 membranes with human GC as a function of N104H-GCAP1 concentration (0-10 µM) at <19 nM free Ca2+; EC50 = [N104H] at which GC activity is half-maximal” value [1] was 1600 nM and the “stoichiometry N” value [2] was 2.
